Measurements as given in the supplement of paper PMC9112550, “Optimization of the antimicrobial peptide Bac7 by deep mutational scanning” (BMC Biology, 2022).

Test system: Escherichia coli TOP10
Test: shrunken log2 fold change of peptide-encoding DNA abundance (4.5 h post-induction vs induction); higher = less antimicrobial activity (less host growth inhibition)
Details: time post-induction: 4.5 h; library: site-saturation at positions 5, 18, 19, 20
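Further: peptides expressed intracellularly from a pBAD plasmid library in pooled LB shake-flask culture, induced with 0.3% L-arabinose, DNA abundance read by NGS, three biological replicates, DESeq2 with apeglm shrinkage.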

| Sequence | shrunken log2 fold change |
| --- | --- |
| RRIRERPPRLPRPRPRPLARPRP | 0.179 |
| RRIRLRPPRLPRPRPRPLFCPRP | -0.142 |
| RRIRVRPPRLPRPRPRPPLSPRP | 0.106 |
| RRIRRRPPRLPRPRPRPGMDPRP | 0.0814 |
| RRIRNRPPRLPRPRPRPIAQPRP | -0.00164 |
| RRIRYRPPRLPRPRPRPDKEPRP | -0.478 |
| RRIRLRPPRLPRPRPRPCKVPRP | 0.00893 |
| RRIRFRPPRLPRPRPRPHSVPRP | 0.036 |
| RRIRHRPPRLPRPRPRPLKWPRP | -0.0708 |
| RRIRDRPPRLPRPRPRPFRCPRP | -0.0101 |
| RRIRKRPPRLPRPRPRPEYNPRP | 0.196 |
| RRIRWRPPRLPRPRPRPEIDPRP | 0.0771 |
| RRIRLRPPRLPRPRPRPQYPPRP | -0.765 |
| RRIRPRPPRLPRPRPRPFTHPRP | -0.466 |
| RRIRGRPPRLPRPRPRPDNMPRP | -0.185 |
| RRIRNRPPRLPRPRPRPILFPRP | -0.396 |
| RRIRIRPPRLPRPRPRPEMCPRP | 0.0321 |
| RRIRKRPPRLPRPRPRPDCDPRP | 0.095 |
| RRIRRRPPRLPRPRPRPCTEPRP | 0.106 |
| RRIRDRPPRLPRPRPRPMYFPRP | -0.358 |
| RRIRMRPPRLPRPRPRPIKDPRP | -0.165 |
| RRIRVRPPRLPRPRPRPHYPPRP | -0.675 |
| RRIRFRPPRLPRPRPRPMKFPRP | -0.681 |
| RRIRERPPRLPRPRPRPPDVPRP | -0.108 |
| RRIRARPPRLPRPRPRPVHDPRP | 0.146 |

| Sequence | shrunken log2 fold change |
| --- | --- |
| RRIRWRPPRLPRPRPRPMPPPRP | 0.411 |
| RRIRIRPPRLPRPRPRPGAFPRP | -0.294 |
| RRIRDRPPRLPRPRPRPRIYPRP | -0.173 |
| RRIRDRPPRLPRPRPRPKFRPRP | 0.152 |
| RRIRDRPPRLPRPRPRPHITPRP | -0.7 |
| RRIRERPPRLPRPRPRPSWGPRP | -0.102 |
| RRIRQRPPRLPRPRPRPAMNPRP | -0.115 |
| RRIRDRPPRLPRPRPRPEWTPRP | 0.147 |
| RRIRLRPPRLPRPRPRPNLEPRP | 0.0534 |
| RRIRDRPPRLPRPRPRPKICPRP | 0.0258 |
| RRIRNRPPRLPRPRPRPLCFPRP | -0.461 |
| RRIRHRPPRLPRPRPRPGVLPRP | 0.0408 |
| RRIRQRPPRLPRPRPRPIWPPRP | -0.0155 |
| RRIRCRPPRLPRPRPRPMDPPRP | -0.543 |
| RRIRARPPRLPRPRPRPYSTPRP | -0.563 |
| RRIRPRPPRLPRPRPRPMMGPRP | 0.0538 |
| RRIRNRPPRLPRPRPRPALPPRP | 0.248 |
| RRIRHRPPRLPRPRPRPYAMPRP | -0.416 |
| RRIRWRPPRLPRPRPRPVAFPRP | 0.313 |
| RRIRLRPPRLPRPRPRPDVPPRP | -0.284 |
| RRIRSRPPRLPRPRPRPSAAPRP | 0.614 |
| RRIRVRPPRLPRPRPRPYEFPRP | 2.15 |
| RRIRARPPRLPRPRPRPDFQPRP | 0.149 |
| RRIRHRPPRLPRPRPRPETNPRP | 0.0688 |
| RRIRQRPPRLPRPRPRPPWRPRP | 0.619 |

| Sequence | shrunken log2 fold change |
| --- | --- |
| RRIRLRPPRLPRPRPRPTIIPRP | 0.0804 |
| RRIRIRPPRLPRPRPRPHYKPRP | -0.756 |
| RRIRGRPPRLPRPRPRPCVMPRP | 0.516 |
| RRIRCRPPRLPRPRPRPCVEPRP | -0.0788 |
| RRIRTRPPRLPRPRPRPIGFPRP | -0.0989 |
| RRIRPRPPRLPRPRPRPHVQPRP | -0.0151 |
| RRIRQRPPRLPRPRPRPFCHPRP | 0.00489 |
| RRIRFRPPRLPRPRPRPLDSPRP | -0.0455 |
| RRIRWRPPRLPRPRPRPRFCPRP | 0.234 |
| RRIRFRPPRLPRPRPRPIPVPRP | 0.0949 |
| RRIRERPPRLPRPRPRPGHMPRP | -0.247 |
| RRIRWRPPRLPRPRPRPKEMPRP | 0.476 |
| RRIRARPPRLPRPRPRPPDQPRP | 1.16 |
| RRIRARPPRLPRPRPRPDPMPRP | 1.02 |
| RRIRRRPPRLPRPRPRPMPCPRP | 0.0929 |
| RRIRQRPPRLPRPRPRPSVLPRP | -0.0352 |
| RRIRFRPPRLPRPRPRPFNSPRP | -0.0372 |
| RRIRDRPPRLPRPRPRPLWIPRP | -0.421 |
| RRIRCRPPRLPRPRPRPDHTPRP | -0.699 |
| RRIRNRPPRLPRPRPRPLFHPRP | -0.595 |
| RRIRHRPPRLPRPRPRPYIYPRP | -0.347 |
| RRIRVRPPRLPRPRPRPCQTPRP | -0.03 |
| RRIRRRPPRLPRPRPRPCMQPRP | 0.23 |
| RRIRHRPPRLPRPRPRPHCKPRP | -0.0178 |
| RRIRNRPPRLPRPRPRPVSNPRP | -0.00917 |

| Sequence | shrunken log2 fold change |
| --- | --- |
| RRIRSRPPRLPRPRPRPNFHPRP | -0.171 |
| RRIRWRPPRLPRPRPRPHAFPRP | 0.154 |
| RRIRYRPPRLPRPRPRPVRVPRP | 0.0746 |
| RRIRSRPPRLPRPRPRPTMLPRP | -0.119 |
| RRIRFRPPRLPRPRPRPNQRPRP | 0.269 |
| RRIRARPPRLPRPRPRPYDHPRP | -0.57 |
| RRIRLRPPRLPRPRPRPYRDPRP | 0.0076 |
| RRIRTRPPRLPRPRPRPIIPPRP | -0.279 |
| RRIRSRPPRLPRPRPRPSWQPRP | -0.227 |
| RRIRERPPRLPRPRPRPLWTPRP | 0.0667 |
| RRIRGRPPRLPRPRPRPGRDPRP | 0.358 |
| RRIRVRPPRLPRPRPRPIICPRP | -0.448 |
| RRIRKRPPRLPRPRPRPRNIPRP | -0.116 |
| RRIRQRPPRLPRPRPRPNECPRP | 0.033 |
| RRIRPRPPRLPRPRPRPMPFPRP | -0.349 |
| RRIRIRPPRLPRPRPRPYYTPRP | -0.389 |
| RRIRFRPPRLPRPRPRPSSTPRP | -0.325 |
| RRIRTRPPRLPRPRPRPVVIPRP | 1.29 |
| RRIRCRPPRLPRPRPRPGFYPRP | -0.449 |
| RRIRTRPPRLPRPRPRPHVSPRP | -0.287 |
| RRIRERPPRLPRPRPRPKGAPRP | 0.216 |
| RRIRYRPPRLPRPRPRPHFWPRP | -0.257 |
| RRIRFRPPRLPRPRPRPTPGPRP | 0.677 |
| RRIRSRPPRLPRPRPRPCAQPRP | 0.00151 |
| RRIRRRPPRLPRPRPRPQRKPRP | 0.347 |

| Sequence | shrunken log2 fold change |
| --- | --- |
| RRIRSRPPRLPRPRPRPESYPRP | 1.29 |
| RRIRARPPRLPRPRPRPCKGPRP | -0.0784 |
| RRIRNRPPRLPRPRPRPERRPRP | 0.237 |
| RRIRIRPPRLPRPRPRPPHDPRP | -0.0948 |
| RRIRWRPPRLPRPRPRPEEVPRP | -0.0142 |
| RRIRIRPPRLPRPRPRPCQLPRP | -0.812 |
| RRIRRRPPRLPRPRPRPPDYPRP | 0.244 |
| RRIRCRPPRLPRPRPRPQNTPRP | -0.691 |
| RRIRDRPPRLPRPRPRPNWWPRP | 0.22 |
| RRIRYRPPRLPRPRPRPETLPRP | -0.0879 |
| RRIRPRPPRLPRPRPRPRKDPRP | 0.173 |
| RRIRCRPPRLPRPRPRPDVWPRP | 0.198 |
| RRIRCRPPRLPRPRPRPQNKPRP | -0.526 |
| RRIRARPPRLPRPRPRPKISPRP | 0.173 |
| RRIRFRPPRLPRPRPRPHYEPRP | -0.0922 |
| RRIRRRPPRLPRPRPRPFNMPRP | -0.362 |
| RRIRDRPPRLPRPRPRPFYPPRP | -0.109 |
| RRIRIRPPRLPRPRPRPDNTPRP | -0.947 |
| RRIRSRPPRLPRPRPRPAWRPRP | 0.567 |
| RRIRVRPPRLPRPRPRPWKDPRP | -0.00963 |
| RRIRCRPPRLPRPRPRPCLKPRP | -0.277 |
| RRIRDRPPRLPRPRPRPWMKPRP | -0.0188 |
| RRIRLRPPRLPRPRPRPIAMPRP | -0.0743 |
| RRIRERPPRLPRPRPRPLDVPRP | -0.304 |
| RRIRCRPPRLPRPRPRPIDHPRP | -1.01 |
